Assay in all cases: pulldown; 150 mM NaCl, 50 mM Tris pH 8, 0.25% NP-40, 1 mM TCEP; 4 C, 2 h; 100 ug HeLa nuclear lysate
Common to all, as to conditions: protein: extract; label: 5' biotin (strand 1)

Series [1] has as its target SP4 (Homo sapiens, UniProt Q02446).
For series [2], the target named is ZNF787 (Homo sapiens, UniProt Q6DD87).
The target of series [3] is T1, ZBTB43 (Homo sapiens, UniProt O43298).
T1 sequence: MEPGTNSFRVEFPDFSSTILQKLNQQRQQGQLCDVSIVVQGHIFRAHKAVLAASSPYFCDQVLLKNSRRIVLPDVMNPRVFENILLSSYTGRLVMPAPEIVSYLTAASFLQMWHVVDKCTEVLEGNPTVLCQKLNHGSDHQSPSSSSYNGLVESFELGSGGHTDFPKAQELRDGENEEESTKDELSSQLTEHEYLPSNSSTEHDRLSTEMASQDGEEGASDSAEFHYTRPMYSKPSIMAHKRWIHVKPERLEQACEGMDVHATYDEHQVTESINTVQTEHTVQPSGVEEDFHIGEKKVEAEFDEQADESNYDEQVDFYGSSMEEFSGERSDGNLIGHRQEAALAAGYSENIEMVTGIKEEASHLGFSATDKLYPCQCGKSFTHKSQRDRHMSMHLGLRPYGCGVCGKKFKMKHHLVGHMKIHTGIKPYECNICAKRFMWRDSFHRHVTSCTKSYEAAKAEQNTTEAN

Series [4] has as its target T2, ZNF512B (Homo sapiens, UniProt Q96KM6).
T2 sequence: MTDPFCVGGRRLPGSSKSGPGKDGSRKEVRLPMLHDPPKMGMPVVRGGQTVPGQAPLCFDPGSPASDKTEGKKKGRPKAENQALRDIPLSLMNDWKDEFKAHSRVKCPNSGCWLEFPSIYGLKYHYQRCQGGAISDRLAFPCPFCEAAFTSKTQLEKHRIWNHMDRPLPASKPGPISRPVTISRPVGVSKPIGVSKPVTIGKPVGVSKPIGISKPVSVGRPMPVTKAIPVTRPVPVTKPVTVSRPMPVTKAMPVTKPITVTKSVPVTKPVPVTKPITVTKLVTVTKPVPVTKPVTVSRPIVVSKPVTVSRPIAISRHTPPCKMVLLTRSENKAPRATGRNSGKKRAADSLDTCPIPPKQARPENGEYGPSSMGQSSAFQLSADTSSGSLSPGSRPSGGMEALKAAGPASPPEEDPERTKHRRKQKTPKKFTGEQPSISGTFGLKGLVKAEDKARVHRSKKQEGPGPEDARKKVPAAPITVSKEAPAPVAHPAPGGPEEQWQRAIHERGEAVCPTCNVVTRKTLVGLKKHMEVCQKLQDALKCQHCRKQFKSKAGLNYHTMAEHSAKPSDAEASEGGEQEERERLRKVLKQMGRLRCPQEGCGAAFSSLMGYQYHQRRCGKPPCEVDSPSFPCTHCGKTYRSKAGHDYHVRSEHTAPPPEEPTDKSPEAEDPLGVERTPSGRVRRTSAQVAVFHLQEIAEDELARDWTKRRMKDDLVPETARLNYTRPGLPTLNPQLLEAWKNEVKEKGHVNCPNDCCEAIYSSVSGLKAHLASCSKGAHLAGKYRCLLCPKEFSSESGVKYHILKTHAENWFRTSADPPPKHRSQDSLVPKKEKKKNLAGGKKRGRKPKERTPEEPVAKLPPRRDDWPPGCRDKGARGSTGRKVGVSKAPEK

For series [5], the target named is T3, ZBTB20 (Homo sapiens, UniProt Q9HC78).
T3 sequence: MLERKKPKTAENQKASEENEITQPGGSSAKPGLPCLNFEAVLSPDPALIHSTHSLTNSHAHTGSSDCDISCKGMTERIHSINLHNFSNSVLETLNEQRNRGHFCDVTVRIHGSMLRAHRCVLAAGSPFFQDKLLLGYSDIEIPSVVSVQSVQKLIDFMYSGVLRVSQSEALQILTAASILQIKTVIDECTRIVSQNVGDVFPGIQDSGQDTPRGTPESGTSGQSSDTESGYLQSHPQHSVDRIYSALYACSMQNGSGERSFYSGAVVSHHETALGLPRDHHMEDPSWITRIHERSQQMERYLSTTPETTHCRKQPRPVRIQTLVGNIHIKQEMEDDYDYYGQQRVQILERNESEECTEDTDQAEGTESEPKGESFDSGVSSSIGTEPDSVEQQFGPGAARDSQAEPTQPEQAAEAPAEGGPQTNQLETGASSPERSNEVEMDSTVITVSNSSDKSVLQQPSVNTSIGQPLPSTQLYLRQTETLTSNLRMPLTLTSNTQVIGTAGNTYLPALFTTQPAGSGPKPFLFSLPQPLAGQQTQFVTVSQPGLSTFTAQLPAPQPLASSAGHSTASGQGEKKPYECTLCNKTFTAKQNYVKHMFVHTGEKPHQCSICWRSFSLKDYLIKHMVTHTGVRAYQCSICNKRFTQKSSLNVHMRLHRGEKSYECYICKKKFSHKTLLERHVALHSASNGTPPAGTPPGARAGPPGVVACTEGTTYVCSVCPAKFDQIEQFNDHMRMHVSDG

Series [6] has as its target ZFHX3 (Homo sapiens, UniProt Q15911).

Chain of ZFHX3 (Q15911 whole entry): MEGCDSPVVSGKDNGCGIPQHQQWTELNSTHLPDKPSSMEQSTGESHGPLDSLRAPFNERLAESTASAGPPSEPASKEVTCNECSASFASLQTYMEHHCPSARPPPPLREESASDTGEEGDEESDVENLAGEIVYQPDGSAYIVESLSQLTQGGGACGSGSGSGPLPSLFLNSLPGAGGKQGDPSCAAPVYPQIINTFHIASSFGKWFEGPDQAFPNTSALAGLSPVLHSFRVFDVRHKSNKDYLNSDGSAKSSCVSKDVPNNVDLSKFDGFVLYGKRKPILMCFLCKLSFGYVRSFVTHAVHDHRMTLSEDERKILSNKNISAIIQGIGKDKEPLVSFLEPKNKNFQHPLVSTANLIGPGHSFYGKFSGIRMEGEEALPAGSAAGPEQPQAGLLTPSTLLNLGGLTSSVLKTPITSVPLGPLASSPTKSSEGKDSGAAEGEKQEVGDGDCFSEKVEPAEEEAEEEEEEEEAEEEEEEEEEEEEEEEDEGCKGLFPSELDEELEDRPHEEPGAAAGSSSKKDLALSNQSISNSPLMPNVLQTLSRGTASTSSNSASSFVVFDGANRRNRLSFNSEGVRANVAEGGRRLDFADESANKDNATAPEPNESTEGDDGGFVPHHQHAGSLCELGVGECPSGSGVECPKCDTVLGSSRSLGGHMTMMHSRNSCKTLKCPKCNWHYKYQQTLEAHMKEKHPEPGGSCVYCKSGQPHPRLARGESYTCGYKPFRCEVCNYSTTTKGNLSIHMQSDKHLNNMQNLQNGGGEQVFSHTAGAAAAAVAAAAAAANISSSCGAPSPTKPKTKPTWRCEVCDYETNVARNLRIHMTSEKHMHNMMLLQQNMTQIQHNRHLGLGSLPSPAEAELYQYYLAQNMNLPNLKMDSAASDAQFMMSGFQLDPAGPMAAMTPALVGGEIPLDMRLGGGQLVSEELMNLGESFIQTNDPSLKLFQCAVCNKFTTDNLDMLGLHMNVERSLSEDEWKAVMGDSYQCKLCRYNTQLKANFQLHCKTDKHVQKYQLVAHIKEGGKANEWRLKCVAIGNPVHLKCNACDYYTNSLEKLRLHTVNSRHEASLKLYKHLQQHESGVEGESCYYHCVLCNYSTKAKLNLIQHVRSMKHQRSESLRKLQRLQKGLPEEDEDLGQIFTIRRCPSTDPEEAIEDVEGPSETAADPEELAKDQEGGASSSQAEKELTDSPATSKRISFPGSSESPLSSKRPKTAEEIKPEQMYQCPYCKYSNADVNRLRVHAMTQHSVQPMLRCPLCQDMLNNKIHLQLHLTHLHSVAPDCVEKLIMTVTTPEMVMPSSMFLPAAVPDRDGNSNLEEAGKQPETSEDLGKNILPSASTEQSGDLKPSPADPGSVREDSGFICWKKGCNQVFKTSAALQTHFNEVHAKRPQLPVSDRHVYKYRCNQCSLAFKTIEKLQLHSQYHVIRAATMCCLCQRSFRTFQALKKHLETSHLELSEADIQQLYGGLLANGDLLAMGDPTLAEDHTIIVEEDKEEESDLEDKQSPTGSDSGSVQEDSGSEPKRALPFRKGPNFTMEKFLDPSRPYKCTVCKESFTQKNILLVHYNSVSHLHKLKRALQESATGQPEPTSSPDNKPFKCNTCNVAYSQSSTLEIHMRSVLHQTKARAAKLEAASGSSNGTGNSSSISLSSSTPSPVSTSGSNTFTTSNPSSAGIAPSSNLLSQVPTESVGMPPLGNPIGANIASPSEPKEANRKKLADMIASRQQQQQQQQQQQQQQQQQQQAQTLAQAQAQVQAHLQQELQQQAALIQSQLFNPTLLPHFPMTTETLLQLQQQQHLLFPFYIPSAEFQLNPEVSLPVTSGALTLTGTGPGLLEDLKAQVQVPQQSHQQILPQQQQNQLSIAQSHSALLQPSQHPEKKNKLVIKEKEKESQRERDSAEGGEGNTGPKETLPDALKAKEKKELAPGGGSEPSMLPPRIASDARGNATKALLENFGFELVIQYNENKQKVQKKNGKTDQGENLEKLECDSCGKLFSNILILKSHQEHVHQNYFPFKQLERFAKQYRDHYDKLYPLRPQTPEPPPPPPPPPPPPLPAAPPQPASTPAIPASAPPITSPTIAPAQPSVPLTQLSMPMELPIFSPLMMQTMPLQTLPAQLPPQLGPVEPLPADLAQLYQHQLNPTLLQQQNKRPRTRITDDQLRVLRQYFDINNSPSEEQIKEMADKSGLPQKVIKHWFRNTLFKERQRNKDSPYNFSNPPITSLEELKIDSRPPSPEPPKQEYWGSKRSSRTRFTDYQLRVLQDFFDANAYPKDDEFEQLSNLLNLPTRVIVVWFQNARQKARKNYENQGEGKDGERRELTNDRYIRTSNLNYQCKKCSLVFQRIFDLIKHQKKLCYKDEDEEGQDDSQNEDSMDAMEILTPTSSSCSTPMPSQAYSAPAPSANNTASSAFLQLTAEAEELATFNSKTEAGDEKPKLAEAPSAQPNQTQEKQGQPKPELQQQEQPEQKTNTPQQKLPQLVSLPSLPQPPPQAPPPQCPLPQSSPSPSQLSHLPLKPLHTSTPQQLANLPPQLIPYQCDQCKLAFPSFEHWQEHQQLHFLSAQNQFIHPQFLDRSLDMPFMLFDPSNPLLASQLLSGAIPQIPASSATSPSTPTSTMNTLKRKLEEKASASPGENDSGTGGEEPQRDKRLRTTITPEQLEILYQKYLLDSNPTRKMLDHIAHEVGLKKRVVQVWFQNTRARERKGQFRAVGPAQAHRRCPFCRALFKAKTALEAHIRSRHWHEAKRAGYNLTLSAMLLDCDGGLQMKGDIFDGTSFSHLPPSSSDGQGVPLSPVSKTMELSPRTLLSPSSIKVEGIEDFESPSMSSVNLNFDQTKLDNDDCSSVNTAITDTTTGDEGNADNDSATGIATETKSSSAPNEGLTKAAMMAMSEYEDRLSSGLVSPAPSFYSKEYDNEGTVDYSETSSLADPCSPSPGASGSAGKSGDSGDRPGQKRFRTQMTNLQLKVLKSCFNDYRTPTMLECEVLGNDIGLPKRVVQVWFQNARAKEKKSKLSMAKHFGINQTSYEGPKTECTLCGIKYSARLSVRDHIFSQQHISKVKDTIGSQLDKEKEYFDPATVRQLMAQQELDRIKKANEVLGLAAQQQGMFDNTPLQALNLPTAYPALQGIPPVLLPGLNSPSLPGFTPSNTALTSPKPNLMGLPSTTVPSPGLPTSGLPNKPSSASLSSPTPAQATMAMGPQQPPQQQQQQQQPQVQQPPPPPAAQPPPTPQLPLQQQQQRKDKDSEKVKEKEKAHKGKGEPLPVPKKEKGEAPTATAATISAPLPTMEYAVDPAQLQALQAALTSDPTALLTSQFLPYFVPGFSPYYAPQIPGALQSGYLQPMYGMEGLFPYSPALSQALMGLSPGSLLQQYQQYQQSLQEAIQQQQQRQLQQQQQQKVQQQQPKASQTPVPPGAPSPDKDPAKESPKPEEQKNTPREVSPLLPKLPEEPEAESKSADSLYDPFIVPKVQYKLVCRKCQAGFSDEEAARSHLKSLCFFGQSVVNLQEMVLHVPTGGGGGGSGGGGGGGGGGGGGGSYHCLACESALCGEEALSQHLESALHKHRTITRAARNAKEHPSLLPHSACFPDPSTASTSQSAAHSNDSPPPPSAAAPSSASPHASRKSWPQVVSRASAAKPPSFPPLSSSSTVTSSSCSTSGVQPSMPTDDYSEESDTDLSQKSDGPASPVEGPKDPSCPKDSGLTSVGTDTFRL
Chain of ZNF787 (Q6DD87 whole entry): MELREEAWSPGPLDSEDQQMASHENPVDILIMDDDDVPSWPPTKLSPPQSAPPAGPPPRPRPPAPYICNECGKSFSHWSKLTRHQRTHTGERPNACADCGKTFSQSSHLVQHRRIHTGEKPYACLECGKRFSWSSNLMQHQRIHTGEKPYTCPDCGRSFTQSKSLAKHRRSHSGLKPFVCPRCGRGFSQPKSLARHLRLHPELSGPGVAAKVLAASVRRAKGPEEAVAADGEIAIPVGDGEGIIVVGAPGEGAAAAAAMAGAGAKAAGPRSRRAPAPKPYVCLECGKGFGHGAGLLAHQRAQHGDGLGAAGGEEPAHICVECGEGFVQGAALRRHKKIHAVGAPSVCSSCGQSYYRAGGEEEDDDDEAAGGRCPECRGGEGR
Chain of SP4 (Q02446 whole entry): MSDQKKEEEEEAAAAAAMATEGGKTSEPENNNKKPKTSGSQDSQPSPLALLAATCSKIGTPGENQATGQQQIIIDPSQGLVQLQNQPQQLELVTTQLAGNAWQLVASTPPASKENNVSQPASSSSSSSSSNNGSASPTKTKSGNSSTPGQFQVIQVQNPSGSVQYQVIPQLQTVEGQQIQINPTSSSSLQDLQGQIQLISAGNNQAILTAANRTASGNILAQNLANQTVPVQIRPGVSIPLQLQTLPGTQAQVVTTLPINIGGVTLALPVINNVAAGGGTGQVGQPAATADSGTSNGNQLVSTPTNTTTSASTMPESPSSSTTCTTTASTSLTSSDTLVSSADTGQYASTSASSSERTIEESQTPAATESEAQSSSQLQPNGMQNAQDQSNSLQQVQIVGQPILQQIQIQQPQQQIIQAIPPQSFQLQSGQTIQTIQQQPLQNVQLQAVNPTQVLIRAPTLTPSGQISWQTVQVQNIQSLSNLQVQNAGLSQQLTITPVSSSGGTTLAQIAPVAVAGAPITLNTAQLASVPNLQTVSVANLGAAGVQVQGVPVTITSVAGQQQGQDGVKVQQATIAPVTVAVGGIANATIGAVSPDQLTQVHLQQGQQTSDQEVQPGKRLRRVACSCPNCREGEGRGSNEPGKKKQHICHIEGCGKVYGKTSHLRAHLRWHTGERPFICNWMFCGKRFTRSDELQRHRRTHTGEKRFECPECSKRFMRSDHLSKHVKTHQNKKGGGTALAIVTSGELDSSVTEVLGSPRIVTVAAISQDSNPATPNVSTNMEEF

B1: CTCF (dsDNA)
DNA 1: TCAGAGTGGCGGCCAGCAGGGGGCGCCCTTGCCAGA
DNA 2: TCTGGCAAGGGCGCCCCCTGCTGGCCGCCACTCTGA
Turning to B1, the “apparent K (half saturation)” value was determined as 41.3 nM in series [1], 370 nM in series [2], 347 nM in series [3] and 353 nM in series [4].

B2: TATA-box (dsDNA)
DNA 1: GCGGCGCTCTATATAAGTGGGCAGTG
DNA 2: CACTGCCCACTTATATAGAGCGCCGC
Regarding B2, the “apparent K (half saturation)” value in series [5] came out at 98.7 nM; in series [6], 289 nM.

The values above are taken from PMC5916898, “Global profiling of protein–DNA and protein–nucleosome binding affinities using quantitative mass spectrometry”.
